The values that follow come from PMC7440162 (Cell, 2020).

One test has as its target T1, PRTG ECD-Fc (human, UniProt Q2VWP7 36-949).
T1 sequence: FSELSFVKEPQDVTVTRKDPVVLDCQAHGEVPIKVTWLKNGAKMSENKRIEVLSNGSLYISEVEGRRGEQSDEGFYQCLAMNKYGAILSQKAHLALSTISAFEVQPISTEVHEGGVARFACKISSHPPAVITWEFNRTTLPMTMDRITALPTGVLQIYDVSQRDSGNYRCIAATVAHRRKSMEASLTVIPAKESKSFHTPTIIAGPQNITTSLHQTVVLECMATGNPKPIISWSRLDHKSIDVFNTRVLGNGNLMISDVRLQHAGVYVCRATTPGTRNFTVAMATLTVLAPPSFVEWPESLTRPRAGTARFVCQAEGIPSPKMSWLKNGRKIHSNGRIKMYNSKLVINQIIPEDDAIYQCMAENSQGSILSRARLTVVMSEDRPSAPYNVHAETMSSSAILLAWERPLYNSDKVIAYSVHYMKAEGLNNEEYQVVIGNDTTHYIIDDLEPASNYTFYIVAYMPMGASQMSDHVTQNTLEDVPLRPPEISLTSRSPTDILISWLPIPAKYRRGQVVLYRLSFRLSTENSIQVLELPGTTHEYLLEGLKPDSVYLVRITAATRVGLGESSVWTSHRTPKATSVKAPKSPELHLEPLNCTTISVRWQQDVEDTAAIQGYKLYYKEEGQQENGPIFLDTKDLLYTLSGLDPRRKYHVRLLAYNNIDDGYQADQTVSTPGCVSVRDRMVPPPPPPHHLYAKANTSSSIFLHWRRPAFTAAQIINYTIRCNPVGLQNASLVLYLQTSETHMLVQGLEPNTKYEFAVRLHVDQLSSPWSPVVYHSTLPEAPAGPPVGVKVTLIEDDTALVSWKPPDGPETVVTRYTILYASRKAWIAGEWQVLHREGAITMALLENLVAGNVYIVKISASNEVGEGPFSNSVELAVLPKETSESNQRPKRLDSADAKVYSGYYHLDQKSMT
Nature of the test: SPR.

In a further test the target is T2, human ISLR2 ECD-Fc (human, UniProt Q6UXK2 19-589, biotin on the AviTag (as SPR ligand)).
T2 sequence: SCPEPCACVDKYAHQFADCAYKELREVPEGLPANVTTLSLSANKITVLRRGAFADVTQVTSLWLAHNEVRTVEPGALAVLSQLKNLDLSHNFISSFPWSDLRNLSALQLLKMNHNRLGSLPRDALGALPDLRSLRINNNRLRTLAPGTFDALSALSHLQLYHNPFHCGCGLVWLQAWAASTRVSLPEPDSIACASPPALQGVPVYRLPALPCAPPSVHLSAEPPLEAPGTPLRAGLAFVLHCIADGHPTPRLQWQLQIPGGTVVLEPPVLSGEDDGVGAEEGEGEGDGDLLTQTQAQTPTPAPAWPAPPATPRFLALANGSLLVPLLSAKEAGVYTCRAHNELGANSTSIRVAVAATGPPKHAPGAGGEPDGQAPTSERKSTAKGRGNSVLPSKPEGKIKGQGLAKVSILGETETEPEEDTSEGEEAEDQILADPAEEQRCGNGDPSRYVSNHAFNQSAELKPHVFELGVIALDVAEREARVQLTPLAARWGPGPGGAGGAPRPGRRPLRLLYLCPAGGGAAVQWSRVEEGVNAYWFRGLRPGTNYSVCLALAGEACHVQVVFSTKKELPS
Nature of the test: SPR.

B1: WFIKKN2-Fc (Fc fusion)
chain: LPPIRYSHAGICPNDMNPNLWVDAQSTCRRECETDQECETYEKCCPNVCGTKSCVAARYMDVKGKKGPVGMPKEATCDHFMCLQQGSECDIWDGQPVCKCKDRCEKEPSFTCASDGLTYYNRCYMDAEACSKGITLAVVTCRYHFTWPNTSPPPPETTMHPTTASPETPELDMAAPALLNNPVHQSVTMGETVSFLCDVVGRPRPEITWEKQLEDRENVVMRPNHVRGNVVVTNIAQLVIYNAQLQDAGIYTCTARNVAGVLRADFPLSVVRGHQAAATSESSPNGTAFPAAECLKPPDSEDCGEEQTRWHFDAQANNCLTFTFGHCHRNLNHFETYEACMLACMSGPLAACSLPALQGPCKAYAPRWAYNSQTGQCQSFVYGGCEGNGNNFESREACEESCPFPRGNQRCRACKPRQKLVTSFCRSDFVILGRVSELTEEPDSGRALVTVDEVLKDEKMGLKFLGQEPLEVTLLHVDWACPCPNVTVSEMPLIIMGEVDGGMAMLRPDSFVGASSARRVRKLREVMHKKTCDVLKEFLGLH
modifications: biotin on the AviTag (as SPR ligand)
With B1, the binding result with PRTG ECD-Fc and with human ISLR2 ECD-Fc was “binds” in each case.
